Data: publication PMC3571872 (Molecular Biology of the Cell, 2013)
Square brackets hold non-standard residues; d marks the D form. pS = N[C@@H](COP(=O)(O)O)C(=O)O

B1: Phosphopeptide PP2 (peptide)
peptide: Ac-CTNENPF[pS]DPIKQKF-NH2
SMILES: CC[C@H](C)[C@H](NC(=O)[C@@H]1CCCN1C(=O)[C@H](CC(=O)O)NC(=O)[C@H](COP(=O)(O)O)NC(=O)[C@H](Cc1ccccc1)NC(=O)[C@@H]1CCCN1C(=O)[C@H](CC(N)=O)NC(=O)[C@H](CCC(=O)O)NC(=O)[C@H](CC(N)=O)NC(=O)[C@@H](NC(=O)[C@H](CS)NC(C)=O)[C@@H](C)O)C(=O)N[C@@H](CCCCN)C(=O)N[C@@H](CCC(N)=O)C(=O)N[C@@H](CCCCN)C(=O)N[C@@H](Cc1ccccc1)C(N)=O
B2: Gga2p VHS-GAT-His6 (domain or fragment, yeast, UniProt P38817 1-336, looked up)
chain: MSHPHSHSIYLSELPVRKPQALGNPLLRKIQRACRMSLAEPDLALNLDIADYINEKQGAAPRDAAIALAKLINNRESHVAIFALSLLDVLVKNCGYPFHLQISRKEFLNELVKRFPGHPPLRYSKIQRLILTAIEEWYQTICKHSSYKNDMGYIRDMHRLLKYKGYAFPKISESDLAVLKPSNQLKTASEIQKEQEIAQAAKLEELIRRGKPEDLREANKLMKIMAGFKEDNAVQAKQAISSELNKLKRKADLLNEMLESPDSQNWDNETTQELHSALKVAQPKFQKIIEEEQEDDALVQDLLKFNDTVNQLLEKFNLLKNGDSNAASQIHPSHVS
B3: S780D GST-Kex2p C-tail fusion protein (domain or fragment, yeast, UniProt P13134 700-814, looked up)
chain: KSRRRIRRSRAETYEFDIIDTDSEYDSTLDNGTSGITEPEEVEDFDFDLSDEDHLASLSSSENGDAEHTIDSVLTNENPFDDPIKQKFPNDANAESASNKLQELQPDVPPSSGRS
B4: WT GST-Kex2p C-tail fusion protein (domain or fragment, yeast, UniProt P13134 700-814, looked up)
chain: KSRRRIRRSRAETYEFDIIDTDSEYDSTLDNGTSGITEPEEVEDFDFDLSDEDHLASLSSSENGDAEHTIDSVLTNENPFSDPIKQKFPNDANAESASNKLQELQPDVPPSSGRS
B5: Nonphosphorylated peptide NPP (peptide)
peptide: Ac-CLTNENPFSDPIKQKF-NH2

Experiments:
[1] = molecular target: S780A GST-Kex2p C-tail fusion protein (yeast) (UniProt P13134); test: pull-down
[2] = molecular target: S780A GST-Kex2p C-tail fusion protein (yeast) (UniProt P13134); test: ITC
[3] = molecular target: B2; test: pull-down
[4] = molecular target: B3; test: pull-down
[5] = molecular target: B2; test: ITC

Molecule	binding result [3]	Kd [5] [µM]	also measured
Gga2p VHS-GAT-His6 (from UniProt P38817 1-336) (domain or fragment)			fold lower binding than the WT tail [1]: 2 fold; t1/2 of dissociation [1]: 40 min; Kd [2]: 400 µM
B1	binds		
B2			fold higher binding than the WT tail [4]: 2 fold
B3		6.6	
B4		10	
B5	binds		
